Positions count from the first letter of the chain named. In names and notes the source's numbering stands.
B1: Syno RING synoviolin protein (GST moiety removed by thrombin) (protein)
chain: IRNMNTLYPDATPEELQAMDNVCIICREEMVTGAKRLPCNHIFHTSCLRSWFQRQQTCPTCRMDVLRASLPAQSPPPPEPADQGPPPAPHPPPLLPQPPNFPQGLLPPFPPGMFPLWPPMGPFPPVPPPPSSGEAVAPPSTSAAALSRPSGA
B2: Syno dTM synoviolin protein (GST moiety removed by thrombin) (protein)
chain: KVHTFPLFAIRPMYLAMRQFKKAVTDAIMSRRAIRNMNTLYPDATPEELQAMDNVCIICREEMVTGAKRLPCNHIFHTSCLRSWFQRQQTCPTCRMDVLRASLPAQSPPPPEPADQGPPPAPHPPPLLPQPPNFPQGLLPPFPPGMFPLWPPMGPFPPVPPPPSSGEAVAPPSTSAAALSRPSGAATTTAAGTSATAASATASGPGSGSAPEAGPAPGFPFPPPWMGMPLPPPFAFPPMPVPPAGFAGLTPEELRALEGHERQHLEARLQSLRNIHTLLDAAMLQINQYLTVLASLGPPRPATSVNSTEGTATTVVAAASSTSIPSSEATTPTPGASPPAPEMERPPAPESVGTEEMPEDGEPDAAELRRRRLQKLESPVAH
B3: Syno dTM (C307S) with 307th cysteine to serine substitution (GST moiety removed by thrombin) (protein)
chain: B2 chain with C72S
B4: Syno dTM (dRING) with 291st to 329th amino acid deletion (GST moiety removed by thrombin) (protein)
chain: KVHTFPLFAIRPMYLAMRQFKKAVTDAIMSRRAIRNMNTLYPDATPEELQAMDNVRMDVLRASLPAQSPPPPEPADQGPPPAPHPPPLLPQPPNFPQGLLPPFPPGMFPLWPPMGPFPPVPPPPSSGEAVAPPSTSAAALSRPSGAATTTAAGTSATAASATASGPGSGSAPEAGPAPGFPFPPPWMGMPLPPPFAFPPMPVPPAGFAGLTPEELRALEGHERQHLEARLQSLRNIHTLLDAAMLQINQYLTVLASLGPPRPATSVNSTEGTATTVVAAASSTSIPSSEATTPTPGASPPAPEMERPPAPESVGTEEMPEDGEPDAAELRRRRLQKLESPVAH

Biological target: GST-fused P4HA1 protein (whole region of P4HA1)
Sequence (chain, as listed by the source): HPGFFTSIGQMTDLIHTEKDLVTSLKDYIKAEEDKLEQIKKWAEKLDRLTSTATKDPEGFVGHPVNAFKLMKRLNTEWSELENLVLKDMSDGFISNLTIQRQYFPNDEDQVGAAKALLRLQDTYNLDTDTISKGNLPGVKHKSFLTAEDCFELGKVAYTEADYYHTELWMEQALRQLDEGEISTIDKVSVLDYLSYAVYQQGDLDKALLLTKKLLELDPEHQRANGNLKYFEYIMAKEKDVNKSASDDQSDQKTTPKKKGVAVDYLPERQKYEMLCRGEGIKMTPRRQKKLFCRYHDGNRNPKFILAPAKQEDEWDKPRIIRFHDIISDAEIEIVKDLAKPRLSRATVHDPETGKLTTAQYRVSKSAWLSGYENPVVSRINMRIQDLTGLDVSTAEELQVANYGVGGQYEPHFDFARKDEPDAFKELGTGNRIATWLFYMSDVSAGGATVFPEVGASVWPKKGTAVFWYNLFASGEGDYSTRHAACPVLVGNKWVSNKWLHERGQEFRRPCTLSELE

Protein	in vitro ubiquitination (32P-labeled ubiquitin, E1, E2 UbCH5c, ATP; SDS-PAGE autoradiography)
B1	P4HA1 was ubiquitinated by Syno dTM and Syno RING
B2	P4HA1 was ubiquitinated by Syno dTM and Syno RING
B3	P4HA1 was not ubiquitinated by Syno dTM (C307S) and Syno dTM (dRING)
B4	P4HA1 was not ubiquitinated by Syno dTM (C307S) and Syno dTM (dRING)
